These results are taken from the RNAGym collection of RNA variant scans (doi:10.1073/pnas.2313332121).

First the molecules themselves.
B1: TPR t1 (parent)
chain: GACCAAUCUGCCCUCAGAGCUCGAGAACAUCUUCGGAUGCAGAGGAGGCAGGCUUCGGUGGCGCGAUAGCGCCAACGUCCUCAACCUCCAAUGCAUCCCACCACAUGAUGAUGCCUGAAGAGCCUUGGUUUUUUG

In the data set the parent is B1. Briefly: polymerase ribozyme fitness, log enrichment relative to wild type (log ratio); higher = more active; in vitro selection for triplet polymerase activity. The gist of the method: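 Mutant libraries were PCR-built and transcribed for each subunit of a heterodimeric triplet polymerase ribozyme and selected for one round in triplicate at −7 °C, frozen, before gel excision of extended constructs and streptavidin-bead capture. Input and output libraries were Illumina-sequenced, keeping genotypes with ≥10 input reads and ≥1 read per output. Fitness is a logarithmic ratio of genotype to wild-type enrichment, in base 2, using inverse-variance-weighted replicate averages.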
Consider U9G C13U C49G C82U, for which the “polymerase ribozyme fitness (log ratio)” value was -0.776.
Turning to U9C A111U A121C U126A U130G, the “polymerase ribozyme fitness (log ratio)” value was -4.36.
For C8U G117U U126C, the “polymerase ribozyme fitness (log ratio)” value is -3.25.
With U9G G17U G60C U96C C104U G117A, the “polymerase ribozyme fitness (log ratio)” value was -3.16.
Regarding U9A C73G, the “polymerase ribozyme fitness (log ratio)” value is -0.255.
For the variant U9G G48U C49U G69U G120U, the “polymerase ribozyme fitness (log ratio)” value turned out to be 0.977.
To U9C C82A U109G C124U U131C belongs -3.57; to C8U, 0.471.
For the variant U9C G47U C49U U129A, the “polymerase ribozyme fitness (log ratio)” value was -3.07.
Take U9G C12A G57U A111U C114A U133A: the “polymerase ribozyme fitness (log ratio)” value is -5.59.
With C8U C11A the figure was 0.824; with U9A C56U C73U, 0.233.
In the case of U9G G36U C70U A74U, the “polymerase ribozyme fitness (log ratio)” value was -1.42.
As to U9C C40G C101U, the “polymerase ribozyme fitness (log ratio)” value is -0.436.
On to U9A C20A, for which the “polymerase ribozyme fitness (log ratio)” value is -2.35.
For C8U A29U U59C A121G, the “polymerase ribozyme fitness (log ratio)” value was -1.03.
With U9A A100U, the “polymerase ribozyme fitness (log ratio)” value is 0.21.
In the case of U9G G10C, the “polymerase ribozyme fitness (log ratio)” value came out at 0.723.
Consider U9G G10U, for which the “polymerase ribozyme fitness (log ratio)” value is 0.261.
With U9G C99U C124A U131G, the “polymerase ribozyme fitness (log ratio)” value is -3.14.
With C8U G93C C114U the figure was -1.54.
As to U9G G39A, the “polymerase ribozyme fitness (log ratio)” value was 0.968.
Take C8U G51A C56A G120U: the “polymerase ribozyme fitness (log ratio)” value is -3.67.
For C8U C124U, the “polymerase ribozyme fitness (log ratio)” value came to 1.6.
For C8U C124A, the “polymerase ribozyme fitness (log ratio)” value amounted to 2.27.
To U9A A37U belongs 0.568; to U9C C85G, -1.02; to U9G G44U G58A G60U C102U U106A U133C, -3.81.
To C8U G44U C88G U92A belongs -3.81.
Turning to C8U A24G G36A G44U, the “polymerase ribozyme fitness (log ratio)” value is -2.87.
Turning to U9G C11U G35U G69U C89U, the “polymerase ribozyme fitness (log ratio)” value is -3.13.
As for C8U C20U A37U A43U, the “polymerase ribozyme fitness (log ratio)” value is -2.77.
In the case of U9A C13G G35A, the “polymerase ribozyme fitness (log ratio)” value was -3.79.
For the variant C8U G58A G110A, the “polymerase ribozyme fitness (log ratio)” value was -1.27.
For the variant U9C C12G U55C A83G G93A C102U, the “polymerase ribozyme fitness (log ratio)” value is -5.25.
With U9A C13U C79U C114A, the “polymerase ribozyme fitness (log ratio)” value amounted to 0.44.
On to C8U U14A G61A, for which the “polymerase ribozyme fitness (log ratio)” value is -0.345.
With U9A A27U C28A U78C U96A U106A G117A, the “polymerase ribozyme fitness (log ratio)” value was -4.8.
With C8U C22G G45A G47C A100U the figure was -4.96; with C8U C73A, 1.41.
In the case of U9C C12U A16G C49G, the “polymerase ribozyme fitness (log ratio)” value worked out at 0.31.
Turning to U9G C12A U14G G63U C99A G120C, the “polymerase ribozyme fitness (log ratio)” value was -6.39.
Turning to C8U C49U G71C G117U G120A C124A, the “polymerase ribozyme fitness (log ratio)” value is -1.83.
Take C8G U9C C56G G69A: the “polymerase ribozyme fitness (log ratio)” value is -2.35.
Consider U9A C86G, for which the “polymerase ribozyme fitness (log ratio)” value stood at 0.0417.
To U9A U55G C99U belongs -2.44; to C8U G19C G42U A91G C123U, -0.955; to C8U G44U C99U, -2.6.
Take U9C C64A A74U U112G: the “polymerase ribozyme fitness (log ratio)” value is -6.76.
As for U9A C80U C101U A111U U116A, the “polymerase ribozyme fitness (log ratio)” value is -4.4.
As for C8U C64U U96C, the “polymerase ribozyme fitness (log ratio)” value was -0.074.
In the case of U9A A37U A41G, the “polymerase ribozyme fitness (log ratio)” value was 0.164.
On to U9C C13U A27U A46C G52A G113A, for which the “polymerase ribozyme fitness (log ratio)” value was -6.07.
To C8U G42U A50U belongs -3.49; to U9G A41U U81C U96A, -2.65.
Take U9A U55G C56G: the “polymerase ribozyme fitness (log ratio)” value is -0.896.
In the case of U9G C13G C53G C56U C86U A111U, the “polymerase ribozyme fitness (log ratio)” value is -2.52.
In the case of U9A C11A C70U C85U, the “polymerase ribozyme fitness (log ratio)” value was -1.15.
For the variant U9A C13G A46G G107C G135U, the “polymerase ribozyme fitness (log ratio)” value is -7.09.
For the variant U9G C15A C70G A111U G117C, the “polymerase ribozyme fitness (log ratio)” value was -5.91.
As to C8U A29U C70U, the “polymerase ribozyme fitness (log ratio)” value is -2.36.
For C8U A74G C123G, the “polymerase ribozyme fitness (log ratio)” value came to 1.71.
In the case of C8U C12G, the “polymerase ribozyme fitness (log ratio)” value turned out to be 0.586.
Turning to U9G C70U, the “polymerase ribozyme fitness (log ratio)” value was -0.679.
To C8U U14C U78C U106A G120A belongs 1.87; to U9C A43G C89U, -0.469.
To U9G G10U C94U belongs -0.059; to U9C G17U C20G G25C C115U, -6.98; to U9G C73U G113A, -0.47.
Turning to U9A A16C C49U A66G C101G C123A, the “polymerase ribozyme fitness (log ratio)” value is -4.86.
For the variant C8U A119G U126G G127U, the “polymerase ribozyme fitness (log ratio)” value was -0.0945.
U9C A29G G58A A90U G110A: the “polymerase ribozyme fitness (log ratio)” value was -4.22.
As for C8U G36A A66C A84C G117A, the “polymerase ribozyme fitness (log ratio)” value was -3.32.
Consider U9C G42C C53A U55C U130G, for which the “polymerase ribozyme fitness (log ratio)” value was -1.45.
As to U9A A29U G36C G44U C72A A84G, the “polymerase ribozyme fitness (log ratio)” value was -3.62.
For U9A A43U C70U C82A U87C U131A, the “polymerase ribozyme fitness (log ratio)” value is -1.6.
As to U9C C11U G71A A111C, the “polymerase ribozyme fitness (log ratio)” value is -1.02.
Consider C8U A18U A50U G69C C82A C124G, for which the “polymerase ribozyme fitness (log ratio)” value was -3.
For the variant C8U C40U, the “polymerase ribozyme fitness (log ratio)” value stood at 0.0119.
For the variant U9A C53U, the “polymerase ribozyme fitness (log ratio)” value amounted to 0.789.
Take U9G C73U C82A A83C A118U G128A: the “polymerase ribozyme fitness (log ratio)” value is -1.71.
To C8U A24G G48C C115G belongs -3.87; to U9G C49A C104A, -1.57.
For C8U G57U U112A, the “polymerase ribozyme fitness (log ratio)” value turned out to be 1.64.
